Article PMC6940790

Legend:
[1] = system: O=[N+]([O-])c1ccc(O[C@@H]2O[C@H](CO)[C@@H](O)[C@H](O)[C@H]2O)cc1; assay: purified protein; conditions: pH 10.0, glycine-NaOH
[2] = substrate: O=[N+]([O-])c1ccc(O[C@@H]2O[C@H](CO)[C@@H](O)[C@H](O)[C@H]2O)cc1; assay: purified protein; conditions: pH 10.0, glycine-NaOH, 30 °C
[3] = results text says 30 °C, methods say optimal temperatures of 30 and 50 °C

| Molecule | Km ([1]; 30 °C) [mM] | Vmax ([1]; 30 °C) [µmol/min/mg] | kcat ([1]; 30 °C) [s⁻¹] | kcat/Km ([1]; 30 °C) [M⁻¹ s⁻¹] | Km [2] [mM] | Vmax [2] [µmol/min/mg] | kcat [2] [s⁻¹] | kcat/Km [2] [M⁻¹ s⁻¹] | further results |
| --- | --- | --- | --- | --- | --- | --- | --- | --- | --- |
| Bgl1D (uncultured microorganism; K117N/M148K/Q25L) | 1.25 ± 0.12 | 21.7 | 23.8 | 14400 |  |  |  |  |  |
| Bgl1D (uncultured microorganism; D44E/L115N/R91G/S28T/Y37H) |  |  |  |  |  |  |  |  | Km [1, 3]: 0.43 ± 0.04 mM; Vmax [1, 3]: 314 µmol/min/mg; kcat [1, 3]: 242 s⁻¹; kcat/Km [1, 3]: 562000 M⁻¹ s⁻¹ |
| Bgl1D (uncultured microorganism; K117N/L115Q/M148K/Q25L/S28T) | 1.74 ± 0.14 | 37.5 | 31.2 | 17900 |  |  |  |  |  |
| Bgl1D (uncultured microorganism; E154G/I57K/S28P/W122G/Y82S) | 1.67 ± 0.12 | 42.5 | 55.8 | 33400 |  |  |  |  |  |
| Bgl1D (uncultured microorganism; L115N/S28T) (protein) MSLFFTFNPLEIVPTRVIGVPNHYQNYTWCNFQNGDYPFIDGIDINLIYQVKVGIPIVVRLETVATIFNILIPHLSESERDYIKRVYDYLRLDGRTSQSSYFFGPVDSQKIGLINRKYFFEWSSQMTYECLSGKVRGIAAPDKLVSEMNEIYNELMKVFNGDVSNIVNIGVN |  |  |  |  | 1.01 ± 0.45 | 26.3 | 16.5 | 16400 |  |
| Bgl1D (uncultured microorganism; F68L/I70M) (protein) MSLFFTFNPLEIVPTRVIGVPNHYQNYSWCNFQNGDYPFIDGIDINLIYQVKVGIPIVVRLETVATILNMLIPHLSESERDYIKRVYDYLRLDGRTSQSSYFFGPVDSQKIGLILRKYFFEWSSQMTYECLSGKVRGIAAPDKLVSEMNEIYNELMKVFNGDVSNIVNIGVN |  |  |  |  | 0.53 ± 0.08 | 25.8 | 29.4 | 55400 |  |
| Bgl1D (uncultured microorganism) (protein) MSLFFTFNPLEIVPTRVIGVPNHYQNYSWCNFQNGDYPFIDGIDINLIYQVKVGIPIVVRLETVATIFNILIPHLSESERDYIKRVYDYLRLDGRTSQSSYFFGPVDSQKIGLILRKYFFEWSSQMTYECLSGKVRGIAAPDKLVSEMNEIYNELMKVFNGDVSNIVNIGVN |  |  |  |  | 0.54 ± 0.03 | 20.1 | 13.4 | 24800 |  |
| Bgl1D (uncultured microorganism; E154G/I57K/S28P) (protein) MSLFFTFNPLEIVPTRVIGVPNHYQNYPWCNFQNGDYPFIDGIDINLIYQVKVGIPKVVRLETVATIFNILIPHLSESERDYIKRVYDYLRLDGRTSQSSYFFGPVDSQKIGLILRKYFFEWSSQMTYECLSGKVRGIAAPDKLVSEMNEIYNGLMKVFNGDVSNIVNIGVN |  |  |  |  | 1.17 ± 0.05 | 52.9 | 48.1 | 41100 |  |
| Bgl1D (uncultured microorganism; D44E/F68L/I70M/R91G/Y37H) (protein) MSLFFTFNPLEIVPTRVIGVPNHYQNYSWCNFQNGDHPFIDGIEINLIYQVKVGIPIVVRLETVATILNMLIPHLSESERDYIKRVYDYLGLDGRTSQSSYFFGPVDSQKIGLILRKYFFEWSSQMTYECLSGKVRGIAAPDKLVSEMNEIYNELMKVFNGDVSNIVNIGVN |  |  |  |  | 0.47 ± 0.02 | 154 | 139 | 296000 |  |
